From article PMC9437119

Target: T1, Flag-tagged human Fis1 (WT) (human), Q9Y3D6
T1 chain: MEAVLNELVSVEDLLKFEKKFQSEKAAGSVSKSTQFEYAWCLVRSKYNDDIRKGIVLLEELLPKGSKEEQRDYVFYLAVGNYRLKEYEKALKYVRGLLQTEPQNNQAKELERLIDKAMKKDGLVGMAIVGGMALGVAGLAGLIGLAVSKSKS
Test: SDS-resistant oligomers on SDS-PAGE immunoblot of the immunoprecipitate; anti-myc immunoprecipitate of the Mid51/Fis1 complex from HeLa lysate heated 20 min at 55°C, 4-20% Tris-Glycine SDS-PAGE; SDS-resistant complexes detected with anti-myc (Mid51 species) or anti-Flag (Fis1 species); species normalized to monomer
Conditions: remark: other sources report otherwise

- stoichiometry N: 4
B1: Flag-tagged human Fis1 (WT), Q9Y3D6 1-152 (natural protein)
chain: MEAVLNELVSVEDLLKFEKKFQSEKAAGSVSKSTQFEYAWCLVRSKYNDDIRKGIVLLEELLPKGSKEEQRDYVFYLAVGNYRLKEYEKALKYVRGLLQTEPQNNQAKELERLIDKAMKKDGLVGMAIVGGMALGVAGLAGLIGLAVSKSKS
